In EP4721754A1 (Hangzhou Sciwind Biosciences Co., Ltd., dated 2026):
Numbered stars: 1 amine (or outer) side, 2 acyl side, 3 side chain; on linkers, the order of the positions; unused ones are H or OH. Bridge positions count the residues as written; N and C are the ends. Square brackets hold non-standard residues; d marks the D form. Primed or numbered codes have the meaning given here. Ends that are not written are not given here. * marks the point of attachment. C22 diacid′ = docosanedioic acid (C22 diacid) acyl; C20 diacid = O=C(O)CCCCCCCCCCCCCCCCCCC(=O)*; C18 diacid = O=C(O)CCCCCCCCCCCCCCCCC(=O)*; C16 diacid = O=C(O)CCCCCCCCCCCCCCC(=O)*; γGlu = O=C(O)[C@H](CCC(=O)[*:2])N[*:1]; βAsp = O=C(O)[C@H](CC(=O)[*:2])N[*:1]; Hyp = O=C(O)[C@@H]1C[C@@H](O)CN1; Inp′ = not defined here; AEEA = NCCOCCOCC(=O)O

T1: calcitonin receptor (hCTR) (human, UniProt P30988 25-474)
T1 sequence (looked up): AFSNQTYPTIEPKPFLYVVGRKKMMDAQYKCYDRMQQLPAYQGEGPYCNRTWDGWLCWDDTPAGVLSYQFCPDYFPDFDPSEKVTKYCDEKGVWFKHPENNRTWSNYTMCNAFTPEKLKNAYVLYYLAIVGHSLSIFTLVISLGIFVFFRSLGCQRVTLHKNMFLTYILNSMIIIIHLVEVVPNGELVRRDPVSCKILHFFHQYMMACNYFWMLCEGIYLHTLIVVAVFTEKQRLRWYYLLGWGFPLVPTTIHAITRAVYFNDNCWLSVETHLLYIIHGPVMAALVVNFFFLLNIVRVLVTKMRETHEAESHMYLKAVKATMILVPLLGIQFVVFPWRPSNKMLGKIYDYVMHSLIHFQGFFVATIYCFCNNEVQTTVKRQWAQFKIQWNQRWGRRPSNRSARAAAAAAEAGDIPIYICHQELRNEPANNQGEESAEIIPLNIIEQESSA

T2: amylin receptor (hAMY3R) (human, UniProt P30988 25-474; O60896 24-148)
T2 sequence (looked up) 1: T1 sequence (looked up)
T2 sequence (looked up) 2: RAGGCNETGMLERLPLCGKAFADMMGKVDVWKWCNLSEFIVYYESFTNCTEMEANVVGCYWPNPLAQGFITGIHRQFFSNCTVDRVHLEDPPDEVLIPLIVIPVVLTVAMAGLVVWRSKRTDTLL

B1: M25 (peptide)
peptide: ASQLSTAVLGRLSDELHRLQDYPRTDVGSGSP
modifications: not fully specified; N terminus: C20 diacid + βAsp+2 AEEAs
B2: M15 (peptide)
peptide: B1 peptide
modifications: N terminus: C18 diacid + Trx
B3: M16 (peptide)
peptide: B1 peptide
modifications: not fully specified; N terminus: C20 diacid + Inp
B4: M12 (peptide)
peptide: B1 peptide
modifications: not fully specified; N terminus: C20 diacid + βAsp
B5: M18 (peptide)
peptide: B1 peptide
modifications: not fully specified; N terminus: C20 diacid + yGlu+2 AEEAs
B6: M14 (peptide)
peptide: B1 peptide
modifications: not fully specified; N terminus: C20 diacid + Trx
B7: M8 (peptide)
peptide: {C18 diacid-γGlu}-ASQLSTAVLGRLSDELHRLQDYPRTDVGSGSP-NH2
modifications: ends and bridges not checked
B8: M6 (peptide)
peptide: {C20 diacid-γGlu}-ASQLSTAVLGRLSDELHRLQDYPRTDVGSGSP-NH2
modifications: ends and bridges not checked
B9: M17 (peptide)
peptide: {C18 diacid-Inp′}-ASQLSTAVLGRLSDELHRLQDYPRTDVGSGSP-NH2
B10: M26 (peptide)
peptide: {C18 diacid}-D[AEEA][AEEA]ASQLSTAVLGRLSDELHRLQDYPRTDVGSGSP-NH2
B11: M13 (peptide)
peptide: {C18 diacid}-DASQLSTAVLGRLSDELHRLQDYPRTDVGSGSP-NH2
B12: M9 (peptide)
peptide: {C16 diacid-γGlu}-ASQLSTAVLGRLSDELHRLQDYPRTDVGSGSP-NH2
modifications: ends and bridges not checked
B13: M24 (peptide)
peptide: {C18 diacid}-E[AEEA][AEEA]ASQLSTAVLGRLSDELHRLQDYPRTDVGSGSP-NH2
B14: M11 (peptide)
peptide: {C18 diacid}-EASQLSTAVLGRLSDELHRLQDYPRTDVGSGSP-NH2
B15: M7 (peptide)
peptide: {C22 diacid′-γGlu}-ASQLSTAVLGRLSDELHRLQDYPRTDVGSGSP-NH2
modifications: ends and bridges not checked
B16: M30 (peptide)
peptide: {C18 diacid-Inp′-AEEA-AEEA}-ASQLSTAVLGRLSDELHRLQDYPRTDVGSGSP-NH2
B17: N2 (peptide)
peptide: {C20 diacid-βAsp-AEEA-AEEA}-KCNTATCATQRLADFLRHSSNNLKPILPPTNVGSNT[Hyp]-NH2
modifications: disulfide 2-7 (inferred); ends not checked
B18: N3 (peptide)
peptide: {C18 diacid-βAsp-AEEA-AEEA}-KCNTATCATQRLADFLRHSSNNLKPILPPTNVGSNT[Hyp]-NH2
modifications: disulfide 2-7 (inferred); ends not checked
B19: M27 (peptide)
peptide: B1 peptide
modifications: not fully specified; N terminus: C20 diacid + Trx+2 AEEAs
B20: M23 (peptide)
peptide: B1 peptide
modifications: not fully specified; N terminus: C20 diacid + αGlu+2 AEEAs
B21: M21 (peptide)
peptide: B1 peptide
modifications: not fully specified; N terminus: C20 diacid + yGlu+8 AEEAs
B22: M29 (peptide)
peptide: B1 peptide
modifications: not fully specified; N terminus: C20 diacid + Inp+2 AEEAs
B23: M10 (peptide)
peptide: B1 peptide
modifications: not fully specified; N terminus: C20 diacid + αGlu
B24: M28 (peptide)
peptide: B1 peptide
modifications: N terminus: C18 diacid + Trx+2 AEEAs
B25: M22 (peptide)
peptide: {C18 diacid-γGlu-AEEA-AEEA}-ASQLSTAVLGRLSDELHRLQDYPRTDVGSGSP-NH2
B26: M5 (peptide)
peptide: ASQLSTAVLGRLSQELHRLQDYPRTDVGSGSP-NH2
B27: N1 (peptide)
peptide: {C20 diacid-AEEA-AEEA}-KCNTATCATQRLADFLRHSSNNLKPILPPTNVGSNT[Hyp]-NH2
modifications: disulfide 2-7 (inferred); ends not checked

Each binder was assayed against T1, calcitonin receptor (hCTR) (assay: cell-based or functional assay).

Row | Binder | EC50, CRE-luciferase reporter in calcitonin receptor/CRE-luc CHO cells, 24 h
1 | B1 | 138 pM
2 | B2 | 469 pM
3 | B3 | 376 pM
4 | B4 | 73 pM
5 | B5 | 69 pM
6 | B6 | 587 pM
7 | B7 | 165 pM
8 | B8 | 28 pM
9 | B9 | 259 pM
10 | B10 | 24 pM
11 | B11 | 85 pM
12 | B12 | 120 pM
13 | B13 | 81 pM
14 | B14 | 71 pM
15 | B15 | 194 pM

The binders below were run against T2, amylin receptor (hAMY3R) (assay: cell-based or functional assay).

Row | Binder | EC50, CRE-luciferase reporter in amylin receptor/CRE-luc CHO cells, 24 h | EC50, CRE-luciferase reporter in amylin receptor/CRE-luc CHO cells (incubation presumably 4 h, per paragraph 38) | EC50, CRE-luciferase reporter in amylin receptor/CRE-luc CHO cells (incubation presumably 24 h)
16 | B16 | 1 pM | – | –
17 | B17 | – | 9 pM | 40 pM
18 | B18 | – | 1 pM | –
19 | B1 | 17 pM | – | –
20 | B2 | 119 pM | – | –
21 | B3 | 82 pM | – | –
22 | B19 | 4 pM | – | –
23 | B20 | 17 pM | – | –
24 | B4 | 17 pM | – | –
25 | B21 | 44 pM | – | –
26 | B22 | 6 pM | – | –
27 | B23 | 69 pM | – | –
28 | B24 | 2 pM | – | –
29 | B6 | 456 pM | – | –
30 | B25 | 15 pM | – | –
31 | B7 | 16 pM | – | –
32 | B8 | 17 pM | – | –
33 | B9 | 63 pM | – | –
34 | B26 | 33 pM | – | –
35 | B27 | 16 pM | – | –
36 | B10 | 8 pM | – | –
37 | B11 | 16 pM | – | –
38 | B12 | 2 pM | – | –
39 | B13 | 7 pM | – | –
40 | B14 | 16 pM | – | –
41 | B15 | 22 pM | – | –

Target: T1, calcitonin receptor (hCTR)
Assay: cell-based or functional assay
Remark: another data set of the same source

Row | Binder | Fold change in activity against hCTR (benchmark D1) | hCTR EC50, CRE-luciferase reporter cells
42 | B16 | 0.848 fold | 101 pM
43 | B1 | 0.623 fold | –
44 | B2 | 0.183 fold | –
45 | B3 | 0.229 fold | –
46 | B19 | 0.161 fold | 533 pM
47 | B4 | 1.18 fold | –
48 | B5 | 1.25 fold | –
49 | B22 | 0.551 fold | 156 pM
50 | B24 | 0.966 fold | 89 pM
51 | B6 | 0.147 fold | –
52 | B8 | 3.07 fold | –
53 | B9 | 0.332 fold | –
54 | B13 | 1.06 fold | –
55 | B14 | 1.21 fold | –

Target: T2, amylin receptor (hAMY3R)
Assay: cell-based or functional assay
Remark: another data set of the same source

Row | Binder | Fold change in activity against hAMY3R (benchmark D1) | hAMY3R EC50, CRE-luciferase reporter cells
56 | B16 | 36 fold | –
57 | B1 | 2.12 fold | –
58 | B2 | 0.303 fold | –
59 | B3 | 0.439 fold | –
60 | B19 | 9 fold | –
61 | B4 | 2.12 fold | –
62 | B5 | 2.25 fold | 16 pM
63 | B22 | 6 fold | –
64 | B24 | 18 fold | –
65 | B6 | 0.079 fold | –
66 | B8 | 2.12 fold | –
67 | B9 | 0.571 fold | –
68 | B13 | 5.14 fold | –
69 | B14 | 2.25 fold | –

Target: T2, amylin receptor (hAMY3R)
Assay: cell-based or functional assay
Remark: another data set of the same source

Row | Binder | fold increase of agonistic activity against the amylin receptor, compared with M17
70 | B16 | ~70 fold
